Positions count from the first letter of the chain named. Names may count otherwise. “And” between values parts separate entries of the source, which are not always exact repeats. Identical values can stand only once.

T1: IL-12RB2-hFc (human, UniProt Q99665)
T1 chain: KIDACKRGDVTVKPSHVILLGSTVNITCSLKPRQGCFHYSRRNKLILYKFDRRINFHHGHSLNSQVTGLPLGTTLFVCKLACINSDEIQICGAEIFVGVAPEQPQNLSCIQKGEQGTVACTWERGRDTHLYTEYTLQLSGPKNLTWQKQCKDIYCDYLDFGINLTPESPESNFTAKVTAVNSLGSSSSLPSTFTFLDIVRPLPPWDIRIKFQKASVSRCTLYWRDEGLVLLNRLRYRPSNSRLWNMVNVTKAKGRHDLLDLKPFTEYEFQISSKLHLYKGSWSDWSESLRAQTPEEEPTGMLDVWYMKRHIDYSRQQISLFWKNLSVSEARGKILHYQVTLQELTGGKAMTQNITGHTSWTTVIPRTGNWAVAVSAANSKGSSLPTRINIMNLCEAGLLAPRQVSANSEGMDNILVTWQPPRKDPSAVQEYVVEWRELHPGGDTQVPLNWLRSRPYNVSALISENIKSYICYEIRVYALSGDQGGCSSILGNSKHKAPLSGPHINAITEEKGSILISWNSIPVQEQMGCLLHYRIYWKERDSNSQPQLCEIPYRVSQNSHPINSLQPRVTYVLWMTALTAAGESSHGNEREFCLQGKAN

B1: IL-12p70 K259Y (protein)
chain 1: MIWELKKDVYVVELDWYPDAPGEMVVLTCDTPEEDGITWTLDQSSEVLGSGKTLTIQVKEFGDAGQYTCHKGGEVLSHSLLLLHKKEDGIWSTDILKDQKEPKNKTFLRCEAKNYSGRFTCWWLTTISTDLTFSVKSSRGSSDPQGVTCGAATLSAERVRGDNKEYEYSVECQEDSACPAAEESLPIEVMVDAVHKLKYENYTSSFFIRDIIKPDPPKNLQLKPLKNSRQVEVSWEYPDTWSTPHSYFSLTFSVQVQGYSKREKKDRVFTDKTSATVICRKNASISVRAQDRYYSSSWSEWASVPCSGGGSHHHHHH
chain 2: MRNLPVATPDPGMFPSLHHSQNLLRAVSNMLQKARQTLEFYPCTSEEIDHEDITKDKTSTVEACLPLELTKNESCLNSRETSFITNGSSLASRKTSFMMALCLSSIYEDLKMYQVEFKTMNAKLLMDPKRQIFLDQNMLAVIDELMQALNFNSETVPQKSSLEEPDFYKTKIKLCILLHAFRIRAVTIDRVMSYLNAS
B2: IL-12p70 W16A D94K K196E K259Y (protein)
chain 1: B1 chain 1 with W16A, D94K, K196E
chain 2: B1 chain 2
B3: IL-12p70 W16A K196E (protein)
chain 1: B1 chain 1 with W16A, K196E, Y259K
chain 2: B1 chain 2
B4: IL-12p70 W16A D94K (protein)
chain 1: B1 chain 1 with W16A, D94K, Y259K
chain 2: B1 chain 2
B5: IL-12p70 K105E K259Y K265Y (protein)
chain 1: B1 chain 1 with K105E, K265Y
chain 2: B1 chain 2
B6: IL-12p70 D94K K196E (protein)
chain 1: B1 chain 1 with D94K, K196E, Y259K
chain 2: B1 chain 2
B7: IL-12p70 K265Y (protein)
chain 1: B1 chain 1 with Y259K, K265Y
chain 2: B1 chain 2
B8: IL-12p70 K105E K265Y (protein)
chain 1: B1 chain 1 with K105E, Y259K, K265Y
chain 2: B1 chain 2
B9: IL-12p70 p40-HIS6_C253S / p35_C16S_C89S (protein)
chain 1: B1 chain 1 with Y259K
chain 2: B1 chain 2
B10: IL-12p70 W16A D94K K196E K265Y (protein)
chain 1: B1 chain 1 with W16A, D94K, K196E, Y259K, K265Y
chain 2: B1 chain 2
B11: IL-12p70 W16A D94K K196E L197A (protein)
chain 1: B1 chain 1 with W16A, D94K, K196E, L197A, Y259K
chain 2: B1 chain 2
B12: IL-12p70 W16A D94K K196E (protein)
chain 1: B1 chain 1 with W16A, D94K, K196E, Y259K
chain 2: B1 chain 2
B13: IL-12p70 K259Y K265Y (protein)
chain 1: B1 chain 1 with K265Y
chain 2: B1 chain 2
B14: IL-12p70 I90A (protein)
chain 1: B1 chain 1 with I90A, Y259K
chain 2: B1 chain 2
B15: IL-12p70 D94A (protein)
chain 1: B1 chain 1 with D94A, Y259K
chain 2: B1 chain 2
B16: IL-12p70 T203A (protein)
chain 1: B1 chain 1 with T203A, Y259K
chain 2: B1 chain 2
B17: IL-12p70 K59E (protein)
chain 1: B1 chain 1 with K59E, Y259K
chain 2: B1 chain 2
B18: IL-12p70 N104A (protein)
chain 1: B1 chain 1 with N104A, Y259K
chain 2: B1 chain 2
B19: IL-12p70 K59A (protein)
chain 1: B1 chain 1 with K59A, Y259K
chain 2: B1 chain 2
B20: IL-12p70 K105A (protein)
chain 1: B1 chain 1 with K105A, Y259K
chain 2: B1 chain 2
B21: IL-12p70 E87K,K196E (protein)
chain 1: B1 chain 1 with E87K, K196E, Y259K
chain 2: B1 chain 2
B22: IL-12p70 K196A (protein)
chain 1: B1 chain 1 with K196A, Y259K
chain 2: B1 chain 2
B23: IL-12p70 K103E (protein)
chain 1: B1 chain 1 with K103E, Y259K
chain 2: B1 chain 2
B24: IL-12p70 K103A (protein)
chain 1: B1 chain 1 with K103A, Y259K
chain 2: B1 chain 2
B25: IL-12p70 E46K (protein)
chain 1: B1 chain 1 with E46K, Y259K
chain 2: B1 chain 2
B26: IL-12p70 D88A (protein)
chain 1: B1 chain 1 with D88A, Y259K
chain 2: B1 chain 2
B27: IL-12p70 N201A (protein)
chain 1: B1 chain 1 with N201A, Y259K
chain 2: B1 chain 2
B28: IL-12p70 D88K (protein)
chain 1: B1 chain 1 with D88K, Y259K
chain 2: B1 chain 2
B29: IL-12p70 W91A (protein)
chain 1: B1 chain 1 with W91A, Y259K
chain 2: B1 chain 2
B30: IL-12p70 D42K (protein)
chain 1: B1 chain 1 with D42K, Y259K
chain 2: B1 chain 2
B31: IL-12p70 H195A (protein)
chain 1: B1 chain 1 with H195A, Y259K
chain 2: B1 chain 2
B32: IL-12p70 H195E (protein)
chain 1: B1 chain 1 with H195E, Y259K
chain 2: B1 chain 2
B33: IL-12p70 P21A (protein)
chain 1: B1 chain 1 with P21A, Y259K
chain 2: B1 chain 2

In one assay the target is T1, IL-12RB2-hFc. The assay can be described thus: SPR, 25C. (In general: In SPR one partner is held on a chip, and binding of the other changes the refractive index at the surface.)
By Kd is commonly meant the equilibrium constant for the complex coming apart. Consider B1, for which the Kd came to 4 nM.
Molecule B2 returned a dissociation constant (Kd) of 1.9 nM.
Take B3: the Kd was 2.8 nM.
Still for that read-out and setting: the value for B4 was 2.4 nM; that for B5 was 4 nM; that for B6 was 2.3 nM.
Still for that read-out and setting: the value for B7 was 4.9 nM; that for B8 was 1.6 nM; that for B9 was 2.5 nM and 2.4 nM.
Consider B10, for which binding was characterised by a dissociation constant (Kd) of 4.6 nM.
On the same count and under the same terms, the same measure for B11: 3 nM; for B12: 2.3 nM.
On the same count and under the same terms, the same measure for B13: 7 nM.

For the next assay, the target named is T2, IL-12RB1-hFc (human, UniProt P42701). Nature of the assay: SPR, 25C.
For B1, the Kd is 0.87 nM.
Same read-out and setting: the same measure for B5: 1.8 nM; for B7: 0.51 nM.
On the same count and under the same terms, the same measure for B8: 1.1 nM.
The same measure, in the same setting: the same measure for B9: 0.3 nM and 0.11 nM; for B13: 1.4 nM.

The next assay concerns the target T1, IL-12RB2-hFc. The assay can be described thus: SPR, 25C. The source holds these as a separate data set.
The molecule B14 had a Kd of 0.35 nM.
In turn, B1 registered a Kd of 1.1 nM.
As to B15, binding was characterised by a dissociation constant (Kd) of 0.43 nM.
Take B16: the Kd is 0.5 nM.
Still for that read-out and setting: the same measure for B17: 0.49 nM.
Turning to B18, the affinity, expressed as Kd, was 0.39 nM.
On the same count and under the same terms, the same measure for B19: 2.1 nM.
The same measure, in the same setting: the same measure for B20: 0.34 nM; for B7: 1.6 nM.
Same read-out and setting: the value for B21 was 0.49 nM; that for B22 was 0.58 nM.
B23 gave a Kd of 0.34 nM.
On the same count and under the same terms, the value for B24 was 0.33 nM; that for B9 was 0.75 nM and 0.34 nM.
Molecule B25 gave a Kd of 0.52 nM.
As to B26, the affinity, expressed as Kd, was 0.38 nM.
The same measure, in the same setting: the same measure for B27: 0.5 nM; for B28: 0.31 nM; for B29: 0.53 nM.
Molecule B30 gave a Kd of 0.45 nM.
Take B31: the affinity, expressed as Kd, was 0.54 nM.

A further assay concerns the target T2, IL-12RB1-hFc. The assay can be described thus: SPR, 25C. This is another data set of the same source.
With B14, the Kd is 0.06 nM.
On the same count and under the same terms, the value for B1 was 0.08 nM; that for B15 was 0.69 nM; that for B16 was 0.04 nM.
In turn, B17 gave a Kd of 0.07 nM.
B18: binding was characterised by a dissociation constant (Kd) of 0.05 nM.
The same measure, in the same setting: the value for B19 was 0.07 nM.
As for B20, the Kd amounted to 0.06 nM.
Consider B7, for which the Kd amounted to 0.11 nM.
Still for that read-out and setting: the value for B21 was 0.24 nM; that for B22 was 0.04 nM; that for B23 was 0.11 nM.
Same read-out and setting: the same measure for B24: 0.04 nM.
Still for that read-out and setting: the same measure for B9: 0.04 nM; for B32: 0.06 nM.
On to B25, for which the Kd turned out to be 0.04 nM.
For the molecule B26, binding was put at a Kd of 0.03 nM.
For B27, binding was put at a Kd of 0.04 nM.
In turn, B28 yielded a Kd of 0.02 nM.
As for B29, the Kd was found to be 0.07 nM.
Same read-out and setting: the value for B30 was 0.03 nM.
B33 displayed a Kd of 0.06 nM.
Still for that read-out and setting: the value for B31 was 0.13 nM.

For the origin of these results see patent US20260295010 (published 2026).
